How the values were obtained:
CD73-ND-K136A = target: T1, CD73-ND-K136A (human, UniProt P21589 27-317); assay: ELISA; decline multiple of EC50 against CD73-ND
T1 construct: Alanine mutant of CD73-ND
T1 sequence: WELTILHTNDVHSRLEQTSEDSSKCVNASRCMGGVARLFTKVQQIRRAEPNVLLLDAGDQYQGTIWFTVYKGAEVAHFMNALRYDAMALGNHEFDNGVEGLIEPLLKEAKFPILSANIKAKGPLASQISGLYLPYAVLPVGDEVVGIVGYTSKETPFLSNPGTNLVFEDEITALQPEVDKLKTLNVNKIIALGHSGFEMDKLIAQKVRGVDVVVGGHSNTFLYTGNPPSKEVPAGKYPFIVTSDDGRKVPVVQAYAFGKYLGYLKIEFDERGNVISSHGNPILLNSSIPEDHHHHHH
Protocol: (§1) The ELISA plates were coated with SA protein diluted to 1.5 μg/mL in coating buffer (50 mM carbonate coating buffer, pH 9.6) and incubated overnight at 4° C. The supernatant was discarded, and the plates were washed three times with PBST. Then, 5% skimmed milk powder prepared with PBS was added for blocking and the plates were incubated for 2 h at 37° C. After washing the plates once with PBST, CD73-biotin protein (prepared by biotinylating CD73-His protein according to the EZ-Link NHS-Biotin Reagent instructions) was diluted to 0.5 μg/mL and added at 100 μL/well for incubation at room temperature for 1 h. The plates were washed three times with PBST, and the prepared murine-derived monoclonal antibodies against human CD73 were serially diluted with 1% BSA buffer prepared with PBST and added to the ELISA plates at 100 μl/well. The plates were incubated at 37° C. for 1 h. After washing the plates three times with PBST, HRP-labeled goat anti-mouse IgG secondary antibody was added and the plates were incubated for 30 min at 37° C. After washing the plates three times with PBST, the residual droplets were patted dry on absorbent paper as much as possible. Then, 100 μl of TMB color developing solution was added to each well, and the plates were incubated in the dark at room temperature for 5 min for color development. Subsequently, 50 μl of 2M H₂SO₄ stop solution was added to each well to terminate the substrate reaction. The OD values were read at 450 nm using a multimode microplate reader to analyze the binding ability of the tested antibodies to the target antigen human CD73-His.
(§2) Referring to the experimental method in Example 3, the affinity of 48A11-HuV33 for various mutant proteins of CD73-ND was determined. The SA protein was diluted to 1 μg/mL for coating the ELISA plates, and the biotinylated CD73 protein (CD73-biotin) was used at a concentration of 0.1 μg/mL.

CD73-ND-Y132A = target: T2, CD73-ND-Y132A (human, UniProt P21589 27-317); assay: ELISA; decline multiple of EC50 against CD73-ND
T2 construct: Alanine mutant of CD73-ND
T2 sequence: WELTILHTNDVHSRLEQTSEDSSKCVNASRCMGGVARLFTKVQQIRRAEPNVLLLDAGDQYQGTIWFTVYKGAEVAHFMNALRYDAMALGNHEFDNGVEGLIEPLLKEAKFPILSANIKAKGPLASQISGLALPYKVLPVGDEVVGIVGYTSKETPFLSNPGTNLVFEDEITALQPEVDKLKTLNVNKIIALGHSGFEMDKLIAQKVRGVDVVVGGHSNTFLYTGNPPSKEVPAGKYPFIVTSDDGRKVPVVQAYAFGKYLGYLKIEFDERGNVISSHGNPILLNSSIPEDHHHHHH
Protocol: as §1, §2

CD73-ND-Y135A = target: T3, CD73-ND-Y135A (human, UniProt P21589 27-317); assay: ELISA; decline multiple of EC50 against CD73-ND
T3 construct: Alanine mutant of CD73-ND
T3 sequence: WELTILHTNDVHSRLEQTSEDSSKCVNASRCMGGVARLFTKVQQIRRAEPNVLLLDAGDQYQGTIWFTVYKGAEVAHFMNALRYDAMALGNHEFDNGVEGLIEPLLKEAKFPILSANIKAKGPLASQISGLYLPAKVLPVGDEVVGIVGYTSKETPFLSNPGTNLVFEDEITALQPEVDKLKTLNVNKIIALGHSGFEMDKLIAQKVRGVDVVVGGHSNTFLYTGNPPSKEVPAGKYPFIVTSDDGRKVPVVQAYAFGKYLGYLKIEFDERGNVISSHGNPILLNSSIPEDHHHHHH
Protocol: as §1, §2

CD73-ND-L133A = target: T4, CD73-ND-L133A (human, UniProt P21589 27-317); assay: ELISA; decline multiple of EC50 against CD73-ND
T4 construct: Alanine mutant of CD73-ND
T4 sequence: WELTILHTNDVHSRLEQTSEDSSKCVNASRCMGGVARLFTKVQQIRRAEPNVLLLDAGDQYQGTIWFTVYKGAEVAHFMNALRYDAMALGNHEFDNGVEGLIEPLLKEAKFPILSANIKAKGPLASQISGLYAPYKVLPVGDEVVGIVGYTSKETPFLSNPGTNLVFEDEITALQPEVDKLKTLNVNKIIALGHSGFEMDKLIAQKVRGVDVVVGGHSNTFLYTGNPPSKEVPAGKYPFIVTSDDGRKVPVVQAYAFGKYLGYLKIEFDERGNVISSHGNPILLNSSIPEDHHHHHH
Protocol: as §1, §2

CD73-ND-D142A = target: T5, CD73-ND-D142A (human, UniProt P21589 27-317); assay: ELISA; decline multiple of Top against CD73-ND
T5 construct: Alanine mutant of CD73-ND
T5 sequence: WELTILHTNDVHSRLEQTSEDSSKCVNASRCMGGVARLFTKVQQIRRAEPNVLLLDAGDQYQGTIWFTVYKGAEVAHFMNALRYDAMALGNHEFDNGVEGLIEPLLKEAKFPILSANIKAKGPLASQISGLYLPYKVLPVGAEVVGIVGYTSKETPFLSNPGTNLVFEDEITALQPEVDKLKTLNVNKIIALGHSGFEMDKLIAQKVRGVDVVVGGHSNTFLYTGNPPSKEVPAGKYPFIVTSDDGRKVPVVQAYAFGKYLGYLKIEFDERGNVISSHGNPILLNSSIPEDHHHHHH
Protocol: as §1, §2

CD73-ND-his = target: T6, CD73-ND-his (human, UniProt P21589 27-317); assay: ELISA; decline multiple of Top against CD73-ND
T6 construct: Biotinylated and captured on streptavidin in the ELISA
T6 sequence: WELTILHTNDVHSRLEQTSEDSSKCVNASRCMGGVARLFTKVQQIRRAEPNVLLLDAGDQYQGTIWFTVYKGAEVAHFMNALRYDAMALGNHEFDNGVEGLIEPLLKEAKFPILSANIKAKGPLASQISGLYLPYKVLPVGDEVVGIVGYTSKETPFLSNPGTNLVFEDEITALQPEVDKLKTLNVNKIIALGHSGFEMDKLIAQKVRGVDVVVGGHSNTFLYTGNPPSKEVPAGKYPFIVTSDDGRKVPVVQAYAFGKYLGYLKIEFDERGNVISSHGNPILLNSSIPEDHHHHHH
Protocol: as §1, §2

B1: 48A11-HuV33 (antibody, human IgG4, V domains shown)
VH: QVQLVQSGAEVKKPGASVKVSCKASGYTFTSYWMHWVRQAPGQGLEWIGEINPSIGRTNYNEKFKSRVTLTRDTSTSTAYMELSSLRSEDTAVYYCARRVYGTMDYWGQGTLVTVSS
VL: DIQMTQSPSSLSASVGDRVTITCKASQDINSYLSWFQQKPGKSPKLLIYRANIWVDGVPSRFSGSGSGQDYTFTISSLQPEDIATYYCLQYDELYTFGQGTKVEIK
notes: Humanized
Ratio(EC50) (CD73-ND-K136A): 1 fold | Ratio(EC50) (CD73-ND-Y132A): 69.2 fold | Ratio(EC50) (CD73-ND-Y135A): 1.1 fold | Ratio(EC50) (CD73-ND-L133A): 169 fold | Ratio(Top) (CD73-ND-D142A): 1.1 fold | Ratio(Top) (CD73-ND-his): 1 fold

Reference: patent publication US20250066499A1 (SUNSHINE GUOJIAN PHARMACEUTICAL SHANGHAI, published 2025)
